This data set concerns the molecule itself. As to the kind of experiment: crystal structure.

B1: human TREX2 protein (enzyme)
chain: MSEAPRAETFVFLDLEATGLPSVEPEIAELSLFAVHRSSLENPEHDESGALVLPRVLDKLTLCMCPERPFTAKASEITGLSSEGLARCRKAGFDGAVVRTLQAFLSRQAGPICLVAHNGFDYDFPLLCAELRRLGARLPRDTVCLDTLPALRGLDRAHSHGTRARGRQGYSLGSLFHRYFRAEPSAAHSAEGDVHTLLLIFLHRAAELLAWADEQARGWAHIEPMYLPPDDPSLEA
In the case of B1, the binding result is “binds”.
